Assay: yeast display, Sf9 membrane polyspecificity reagent, FACS + sequencing; frameworks hold sequencing errors
In short: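 Galactose induction of a Saccharomyces cerevisiae BJ5465 synthetic nanobody display library ran 36–48 hours. The cells were then stained for 1 hour at 4 °C with 10% biotinylated, detergent-solubilized Sf9 membrane reagent, pulled down on streptavidin microbeads and FACS-sorted into low and high (top ~1%) gates on expression and reagent-binding fluorescence. Labels for polyreactivity follow the gate of origin.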

Sequence | polyreactivity (PSR sort gate)
QVQLVESGGGLVQAGGSLRLSCAASGITIKRYAMGWYRQAPGKEREFVATISQSGTSTYYADSVKGRFTISRDNAKTTVYLQMISLKPEDTAVYYCAADFIGYWYGYYSWGQGTQVTVSS | low polyreactivity
QVQLVESGGGLVQAGGSLRLSCAASGITIPVYMGWYRQAPGKERELVASISTIGGTTYYADSVKGRFTISRDNAKNTVYLQMNSLKPEDTAVYYCAADHPWSWYDYWGQGTQVTVSS | low polyreactivity
QVQLVESGGGLVQAGGSLRLSCAASGITIVLYAMGWYRQAPGQERQLVAAINIDGNTNYADSVKGRFTISRDNAKNTVYLQMNSLKPEDTAVYYCAATFVPAQSRYTGSKYDYWGQGTQVTVSS | low polyreactivity
QVQLVESGGGLVQAGGSLRLSCAASGITIVLYTMGWYRQAPGKEREFVAGITRGGSTYYADSVKGRFTISRDNAKNTVYLQMNSLKPEDTSVYYCAARPRFLRASVEYDYWGQGTQVTVSS | high polyreactivity
QVQLVESGGGLVQAGGSLRLSCAASGITIVNYVMGWYRQAPGKERELVAAISIGGGTYYADSVKGRFTISRDNEKNTVYLQMNSLKPEDTAVYYCNASYGGLSFYIGVYVTGYDYWGQGTQVTVSS | low polyreactivity
QVQLVESGGGLVQAGGSLRLSCAASGITIYDYTMGWYRQAPGKERELVAVITSAGSTYYADSVKGRFTISRDNAKNTVYLQMNSLKPEDTAVYYCAAVIVSRGRKYRLDYWGQGTQVTVSS | high polyreactivity
QVQLVESGGGLVQAGGSLRLSCAASGITIYGYAMGWYRQAPGKERELVAAITRSGGGTYYADSVKGRFTISRDNEKNTVYLQMISLKPEDTAVYYCAADSYSQYTMDYWGQGTQVTVSS | high polyreactivity
QVQLVESGGGLVQAGGSLRLSCAASGITLAGYVMGWYRQAPGKERELVADISSSGDSTYYADSVKGRFTISRDNAKNTVYLQMISLKPEDTAVYYWAAEEIIPLIYKGYPFDYWGQGTQVTVSS | low polyreactivity
QVQLVESGGGLVQAGGSLRLSCAASGITLGYYAMGWYRQAPGKERELVAAISYRGGNTYYADSVKGRFTISRDNAKNTVYLQRNSLKPEDTAVYYCNADLGYESGWWSKYDYWGQGTQVTVSS | low polyreactivity
QVQLVESGGGLVQAGGSLRLSCAASGITLGYYVMGWYRQAPGKERELVAAISSSGGRTYYADSVKGRFTISRDNAKNTVYLQMNSLKPEDTAVYYCAADLGRGIYDYWGQGTQVTVSS | low polyreactivity
QVQLVESGGGLVQAGGSLRLSCAASGITLHHNAMGWYRQAPGKERELVAAITSNGGSTYYADSVKGRFTISRDNAKNTVYLQMNSLKPEDTAVYYCARDSKRLARYYYWGQGTQVTVSS | low polyreactivity
QVQLVESGGGLVQAGGSLRLSCAASGITLHYYAMGWYRQAPGKERELVATISRSGGSTYYADSVKGRFTISRDNAKNTVYLQMNSLKPEDTAVYYCAARSWGGYDSRGYWGQGTQVTVSS | high polyreactivity
QVQLVESGGGLVQAGGSLRLSCAASGITLLYYAMGWYRQAPGKERELVAAISRRGGSTYYADSVKGRFTISRDNAKNTVYLQMNSLKPEDTAVYYCAAYSPYGGYHYLYDYWGQGTEVTVSS | high polyreactivity
QVQLVESGGGLVQAGGSLRLSCAASGITLRGNAMGWYRQSPGKERELVAAIRTSGGRTYYADSVKGRFTISRDNAKNTVYLQMNSLIPEDTAVYYCAADYDSSYAYRTPYGYWGQGTQVTVSS | low polyreactivity
QVQLVESGGGLVQAGGSLRLSCAASGITLRRNAMGWYRQAPGKERELVARISTTGGSTYYADSVKGRFTISRDNAKNTVYLQMNSLKPEDTAVYYCAADYVQYEFEYWGQGTQVTVSS | high polyreactivity
QVQLVESGGGLVQAGGSLRLSCAASGITLSQNAMGWYRQAPGKERELVAAIDSGGVDTYYADSVKGRFTISRDNAKNTVYLQMNSLKPEDTAVYYCAVDYSYEYEYWGQGTQVTVSS | low polyreactivity

Sequence | polyreactivity (PSR sort gate)
QVQLVESGGGLVQAGGSLRLSCAASGITLTKYAMGWYRQAPGKERELVAAISKRGTNTYYADSVKGRFTISRDNAKNTVYLQMNSLKPEDTAVYYCNAPGHRQNGLGDYWGQGTQVTVSS | high polyreactivity
QVQLVESGGGLVQAGGSLRLSCAASGITLTKYGMGWYRQAPGKERELVAAISGSGGSTYYADSVKGRFTISRDNAKNTVYLQMNSLKPEDTAVYYCAARALYPRYYYWGQGTQVTVSS | high polyreactivity
QVQLVESGGGLVQAGGSLRLSCAASGITLVGNAMGWYRQAPGKERELVADINWSDDSTYYADSVKGRFTISRDNAKNTVYLQMNSLKQEDTAVYYCAADVSWRLYNRSSEYDYWGQGTQVTVSS | low polyreactivity
QVQLVESGGGLVQAGGSLRLSCAASGITLVRYAMGWYRQAPGKERELVAAISSSGGSTYYADSVKGRFTISRHNAKNTVYLQMNSLKPEDTAVYYCNAYVHSRRVEFNYWGQGTQVTVSS | high polyreactivity
QVQLVESGGGLVQAGGSLRLSCAASGITLVRYAMGWYRQAPGKERELVASIRGTGGSTYYADSVKGRFTISRDNAKNTVYLQMNSLKPEDTAVYYCAAGRYDYWGQGTQVTVSS | high polyreactivity
QVQLVESGGGLVQAGGSLRLSCAASGITLVRYAMGWYRQAPGKERELVASITSGASTNYADSVKGRFTISRDNAKNTVYLQMNSLKPEDTAVYYCAAGPPSGGWWGGWYDYWGQGTQVTVSS | high polyreactivity
QVQLVESGGGLVQAGGSLRLSCAASGITLYEYAMGWYRQAPGKERELVAAISTSGGRTRYADSVKGRFTISRDNAKNTVYLQMNSLKPEDTAVYYCAASGFVQISNPRRDYWGQGTQVTVSS | high polyreactivity
QVQLVESGGGLVQAGGSLRLSCAASGITLYNYAMGWYRQAPGTERELVAAISLSGGRTYYADSVKGRFTISRDNAKNTVYLQMNSLKPEDTAVYYCAADWLNSDPYNYWGQGTQVTVSS | low polyreactivity
QVQLVESGGGLVQAGGSLRLSCAASGITLYRNVMGWYRQAPGKERELVADISGRGTSTYYADSVKGRFTISRDNAKNTVYLQIHSLKPEDNAVYYCKGEVYLVVYPGLYYYDIYDYWGQGTQVTVSS | low polyreactivity
QVQLVESGGGLVQAGGSLRLSCAASGITLYRYAMGWYRHAPGKERELVAAISWSGGSTYYADSVKGRFTISRDNAKNTVYLQMNSLKPEDTAVYYCAADDYKDEHDYWGQGTQVTVSS | high polyreactivity
QVQLVESGGGLVQAGGSLRLSCAASGITLYYYVMGWYRQAPGKERELVAAISWNSGRTYYADSVKGRFTISRDNAKNTVYLQMNSLKPEDTAVYYCAARPPVRLTYRYSYDYWGQGTQVTVSS | high polyreactivity
QVQLVESGGGLVQAGGSLRLSCAASGITPDYAMGWYRQAPGKERELVAAITWSGGRTYYADSVKGRFTISRDNAKNTVYLQMNSLKPEDTAVYYCAAEHYLGYDYWGQGTQVTVSS | low polyreactivity
QVQLVESGGGLVQAGGSLRLSCAASGITSGHNAMGWYRQAPGKERELVADIRTGDSTNYADSVKGRFTISRDNAKNTVYLQMNSLKPEDTAVYYCAADSAYDVTSYGYWGQGTQVTVSS | low polyreactivity
QVQLVESGGGLVQAGGSLRLSCAASGITSGTYAMGWYRQAPGKERELVAAISSSGGRTYYADSVKGRFTISRDNAKNTVYLQMTSLKPEDTAVSYCAAETDTTYAFYWGQGTQVNVSS | high polyreactivity
QVQLVESGGGLVQAGGSLRLSCAASGITSPYAMGWYRQAPGKERELVAAISWSGSSTYYADSVKGRFTISRDNAKYTVYLQMNSLNPEDTAVYYCATLVSASRSRRFGYEYWGQGSQVTVSS | high polyreactivity
QVQLVESGGGLVQAGGSLRLSCAASGITSSIYAMGWDRQAPGKERELVAVSTTSGGSTYYADSVKGRYTISRDNAKNTVYLQMNSLKPEDTAVYYCAADSYFYLDLLEDYWGQGTKVTVSS | low polyreactivity

From the nanobody polyreactivity screen of Harvey et al. (2022)
